Test results reported in publication PMC2475692.

What was measured:
[1] = target: YFP-EF-preIQ-IQ (CaV1.3 α1 C-terminal fragment, amino acids 1453–1623) (human) (UniProt Q01668); assay: FRET or BRET
[2] = target: YFP-EF-preIQ-IQ-PCRD (CaV1.3 α1 C-terminal fragment, amino acids 1453–1664) (human); assay: FRET or BRET
YFP-EF-preIQ-IQ-PCRD (CaV1.3 α1 C-terminal fragment, amino acids 1453–1664) (human), sequence (Q01668 1453-1664): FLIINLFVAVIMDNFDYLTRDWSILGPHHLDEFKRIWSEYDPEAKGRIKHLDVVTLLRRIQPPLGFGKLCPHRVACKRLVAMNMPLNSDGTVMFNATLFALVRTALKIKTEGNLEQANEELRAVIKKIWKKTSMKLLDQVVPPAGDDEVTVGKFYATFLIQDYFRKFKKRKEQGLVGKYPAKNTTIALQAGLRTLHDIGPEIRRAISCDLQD

YFP-EF-preIQ-IQ (CaV1.3 α1 C-terminal fragment, amino acids 1453–1623) (human), sequence (Q01668 1468-1638): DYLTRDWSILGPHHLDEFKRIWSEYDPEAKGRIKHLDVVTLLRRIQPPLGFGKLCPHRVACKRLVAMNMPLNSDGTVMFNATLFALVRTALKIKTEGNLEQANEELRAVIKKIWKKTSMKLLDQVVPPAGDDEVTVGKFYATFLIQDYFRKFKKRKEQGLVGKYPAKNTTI

N FRET [1]: 0.185
N FRET [2]: 0.235
Substance: CFP-labeled calmodulin (from UniProt P0DP23 1-149) (natural protein)
